Positions count from the first letter of the chain named. Blank lines part the entries; values can stand above or below the molecule they belong to.
Columns and labels:
[1] = molecular target: β-catenin (endogenous, in colon cancer cell lines) (human) (UniProt P35222); assay: cell-based or functional assay
[2] = molecular target: T1, His8-Avi-tag-β-catenin (recombinant, biotinylated, from E. coli) (human, UniProt P35222 1-781, limits assumed, biotinylated (Avi-tag, co-expressed with pBirAcm in the presence of D-Biotin)); assay: BLI (Octet QKe), antibody captured on AHC sensor, β-catenin 200-12.5 nM, 1:1 model
T1 construct: also called purified β-catenin; recombinant antigen protein β-catenin; not shown: His8-Avi tag
T1 sequence (looked up): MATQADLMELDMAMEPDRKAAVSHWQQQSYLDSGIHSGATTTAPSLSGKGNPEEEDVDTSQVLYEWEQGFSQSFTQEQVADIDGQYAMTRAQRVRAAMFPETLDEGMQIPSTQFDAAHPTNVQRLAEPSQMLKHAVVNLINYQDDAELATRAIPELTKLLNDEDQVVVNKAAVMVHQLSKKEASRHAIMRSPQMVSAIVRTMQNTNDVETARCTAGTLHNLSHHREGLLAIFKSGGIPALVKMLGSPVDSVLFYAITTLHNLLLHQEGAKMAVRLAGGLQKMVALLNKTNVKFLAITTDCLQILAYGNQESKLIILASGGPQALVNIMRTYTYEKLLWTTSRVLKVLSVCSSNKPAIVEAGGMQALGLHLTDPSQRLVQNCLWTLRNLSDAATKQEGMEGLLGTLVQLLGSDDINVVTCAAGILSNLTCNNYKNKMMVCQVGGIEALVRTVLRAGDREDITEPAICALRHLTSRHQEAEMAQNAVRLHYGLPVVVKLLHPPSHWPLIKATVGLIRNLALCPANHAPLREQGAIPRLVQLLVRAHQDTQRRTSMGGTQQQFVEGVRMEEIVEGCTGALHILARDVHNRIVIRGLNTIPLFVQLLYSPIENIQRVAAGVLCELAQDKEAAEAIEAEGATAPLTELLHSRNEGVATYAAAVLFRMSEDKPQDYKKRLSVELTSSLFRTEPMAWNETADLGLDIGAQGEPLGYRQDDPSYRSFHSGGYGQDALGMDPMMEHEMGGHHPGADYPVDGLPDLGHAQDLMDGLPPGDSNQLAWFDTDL

[3] = molecular target: T1, His8-Avi-tag-β-catenin (recombinant, …); assay: BLI (Octet QKe): antibody captured on AHC sensor, β-catenin at 200, 100, 50, 25, 12.5 nM, 1:1 binding model

- β-catenin degradation activity (Western blot, HCT116, 2 µM, 12 h) [1]: 25%
Molecule: inBC2-(A6)-VHL152-213 (antibody)

- β-catenin degradation activity (Western blot, HCT116, 2 µM, 12 h) [1]: 5%
Molecule: inBC2-(G5)-VHL152-213 (antibody)

- β-catenin degradation activity (Western blot, HCT116, 2 µM, 12 h) [1]: 8%
Molecule: inBC2-(G10)-VHL152-213 (antibody)

- β-catenin degradation ability (Western blot, three colon cancer cell lines) [1]: 40%
- β-catenin degradation ability compared to inBC2-VHL152-213 (Western blot) (% higher than inBC2-VHL152-213) [1]: 20
Molecule: inBC2-SOCS2153-198 (antibody)

- decrease in the amount of β-catenin (Western blot, HCT116, with or without MLN4924 or Bortezomib) [1]: 30%
- β-catenin degradation activity (Western blot, DLD-1, 2 µM, 12 h) [1]: 15%
- β-catenin degradation activity (Western blot, HCT116, 2 µM, 12 h) [1]: 36%
- β-catenin degradation activity (Western blot, SW480, DLD-1, HCT116) [1]: 20%
- β-catenin degradation activity over time (Western blot, DLD-1, 2 µM) [1]: 25%
Molecule: inBC2-VHL152-213 (antibody)

- Kd [2]: 5.75 nM
- koff [3]: 0.000233 s⁻¹
- kon [3]: 40500 M⁻¹ s⁻¹
B1: inBC0 (antibody, V domains shown)
VH: QVQLVESGGGVVQPGRSLRLSCAASGFTFSSYPMHWVRQAPGKGLEWVAVVSYDGSYKYYADSVKGRLTISRDNSKNTLYLQMNSLRAEDTAVYYCARATVRGVTKIRGVFDSWGRGALVTVSS
VL: DYQLTQSPSSLSASVGDRVTITCKSSQSLLNSRDGKNYLAWYQQKPGKAPKMLIYWASTRESGVPSRFSGSGSGTDFTLTISSLQPEDFATYFCQQYWYWMFTFGQGTKVEIKR
notes: Complete immunoglobulin made by putting the anti-β-catenin VH into inRas37; also called anti-β-catenin cytosol-penetrating interfering antibody inBC0

- Kd [2]: 4.92 nM
- koff [3]: 0.000219 s⁻¹
- kon [3]: 44600 M⁻¹ s⁻¹
B2: inBC2 (antibody, V domains shown)
VH: B1 VH with R116Q, A118T
VL: B1 VL
notes: Complete immunoglobulin; FR4 back-mutated form of inBC0; also called anti-β-catenin cytosol-penetrating interfering antibody inBC2; anti-β-catenin iMab
